Laboratory results from PMC2661133.

Molecular target: Anasazi bean lectin (lectin from seeds of Phaseolus vulgaris cv. Anasazi beans) (Phaseolus vulgaris)
Test: SEC; FPLC-gel filtration on Superdex 200 HR 10/30 calibrated with molecular-mass standards, 20 mM Tris-HCl buffer (pH 7.3); 60 kDa peak set against the 30 kDa band in SDS-PAGE

“Anasazi bean lectin (lectin from seeds of Phaseolus vulgaris cv. Anasazi beans) (natural protein)” gave a stoichiometry N of 2.
